According to US20050239134:

Molecular target: TGF-beta-1 (TGF-β1 homodimer) (Homo sapiens?) (UniProt P01137)
Assay: EMSA
Settings: PS at dA and dC (5' of A and C; from dATP(αS)/dCTP(αS)); apparent; naive library control; room temp 30 min

Sequence of TGF-beta-1 (TGF-β1 homodimer) (Homo sapiens?) (P01137 279-390): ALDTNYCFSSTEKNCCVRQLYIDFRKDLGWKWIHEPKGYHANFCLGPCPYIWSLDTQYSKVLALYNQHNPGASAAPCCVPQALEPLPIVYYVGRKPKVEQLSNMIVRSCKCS

## CAGTCCGGATGCTCTAGAGTGACNNNNNNNNNNNNNNNNNNNNNNNNNNNNNNCGAATCTCGTGAAGCCGAGCG [initial 74-mer N30 thiophosphate ssDNA library]
  Kd: 11 µM
